Like-named read-outs stand apart in the source and are kept apart here.
Key:
[1] = molecular target: T1, human CD73 on Calu6 cells (human, UniProt P21589 27-549); experiment: cell-based or functional assay
T1 sequence (looked up): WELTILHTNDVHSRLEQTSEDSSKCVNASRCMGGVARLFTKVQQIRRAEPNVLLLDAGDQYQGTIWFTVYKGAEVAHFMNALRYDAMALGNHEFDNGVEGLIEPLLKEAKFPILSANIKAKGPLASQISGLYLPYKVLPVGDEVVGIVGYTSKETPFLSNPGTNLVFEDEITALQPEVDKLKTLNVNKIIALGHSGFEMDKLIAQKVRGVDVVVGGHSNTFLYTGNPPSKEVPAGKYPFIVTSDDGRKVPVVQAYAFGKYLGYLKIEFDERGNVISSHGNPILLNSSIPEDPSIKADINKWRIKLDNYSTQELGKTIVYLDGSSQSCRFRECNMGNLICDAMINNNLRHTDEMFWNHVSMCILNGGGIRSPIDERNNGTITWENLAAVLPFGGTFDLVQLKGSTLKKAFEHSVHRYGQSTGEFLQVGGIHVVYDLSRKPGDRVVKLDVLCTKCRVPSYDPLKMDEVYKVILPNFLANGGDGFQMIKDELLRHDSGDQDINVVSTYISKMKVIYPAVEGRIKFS

[2] = molecular target: T2, human full-length CD73 on hCD73-CHO-1C11 cells (human, UniProt P21589 27-549); experiment: FACS on CHO-CD73-1C11 cells
T2 construct: it may be a nucleotide entry; also called CHO-CD73-1C11
T2 sequence: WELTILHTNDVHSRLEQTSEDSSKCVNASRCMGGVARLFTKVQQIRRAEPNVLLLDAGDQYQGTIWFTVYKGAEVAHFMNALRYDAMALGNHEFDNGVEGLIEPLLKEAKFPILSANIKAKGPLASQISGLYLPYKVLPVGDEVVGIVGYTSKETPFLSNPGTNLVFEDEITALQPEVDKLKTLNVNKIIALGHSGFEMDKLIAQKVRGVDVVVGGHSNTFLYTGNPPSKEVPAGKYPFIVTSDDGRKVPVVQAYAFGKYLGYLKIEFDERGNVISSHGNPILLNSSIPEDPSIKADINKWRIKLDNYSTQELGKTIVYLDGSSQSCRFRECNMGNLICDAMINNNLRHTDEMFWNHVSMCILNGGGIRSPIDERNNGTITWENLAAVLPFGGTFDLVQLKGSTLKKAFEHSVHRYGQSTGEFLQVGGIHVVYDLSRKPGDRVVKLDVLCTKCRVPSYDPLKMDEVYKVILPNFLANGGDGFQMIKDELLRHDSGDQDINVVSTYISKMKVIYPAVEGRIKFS

[3] = molecular target: T1, human CD73 on Calu6 cells; experiment: FACS on Calu6 cells
[4] = molecular target: T3, recombinant human CD73 extracellular domain (Trp27-Lys546) with C-terminal 6-histidine tag (human, UniProt P21589 27-547); experiment: ELISA, plate coated with recombinant CD73 extracellular domain
T3 construct: also called hCD73; hCD73-cHis
T3 sequence: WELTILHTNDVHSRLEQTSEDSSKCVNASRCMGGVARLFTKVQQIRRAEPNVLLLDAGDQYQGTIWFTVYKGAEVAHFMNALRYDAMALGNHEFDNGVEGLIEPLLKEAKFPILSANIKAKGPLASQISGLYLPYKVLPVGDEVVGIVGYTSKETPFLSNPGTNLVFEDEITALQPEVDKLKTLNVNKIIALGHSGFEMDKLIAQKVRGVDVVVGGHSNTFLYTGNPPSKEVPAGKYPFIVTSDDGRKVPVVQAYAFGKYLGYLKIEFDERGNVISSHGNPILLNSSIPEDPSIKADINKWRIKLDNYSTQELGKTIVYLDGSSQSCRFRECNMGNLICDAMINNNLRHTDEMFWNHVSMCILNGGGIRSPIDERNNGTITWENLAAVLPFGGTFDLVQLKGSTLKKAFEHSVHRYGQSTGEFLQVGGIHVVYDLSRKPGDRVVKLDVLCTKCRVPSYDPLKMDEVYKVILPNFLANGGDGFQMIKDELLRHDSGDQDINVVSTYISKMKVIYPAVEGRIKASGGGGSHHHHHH

[5] = molecular target: T4, recombinant cynomolgus monkey CD73 extracellular domain (Trp27-Lys546) (cynomolgus monkey, UniProt P21589 27-547 (human entry)); experiment: as above
T4 construct: also called cynoCD73; recombinant monkey CD73 extracellular domain
T4 chain: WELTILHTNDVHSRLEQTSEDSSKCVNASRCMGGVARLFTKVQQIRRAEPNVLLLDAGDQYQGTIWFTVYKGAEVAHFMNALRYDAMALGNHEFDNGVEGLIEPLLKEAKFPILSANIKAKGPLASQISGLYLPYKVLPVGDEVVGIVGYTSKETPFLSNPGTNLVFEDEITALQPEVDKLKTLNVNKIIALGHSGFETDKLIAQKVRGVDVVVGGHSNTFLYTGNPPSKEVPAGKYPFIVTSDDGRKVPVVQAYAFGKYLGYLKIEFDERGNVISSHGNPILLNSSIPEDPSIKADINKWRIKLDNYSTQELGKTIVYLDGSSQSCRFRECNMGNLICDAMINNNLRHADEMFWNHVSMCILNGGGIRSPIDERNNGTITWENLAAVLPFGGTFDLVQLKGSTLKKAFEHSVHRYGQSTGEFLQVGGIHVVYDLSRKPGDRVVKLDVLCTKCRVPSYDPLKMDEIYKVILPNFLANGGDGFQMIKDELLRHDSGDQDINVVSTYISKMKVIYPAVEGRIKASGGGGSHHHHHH

[6] = molecular target: T3, recombinant human CD73 extracellular …; experiment: cell-based or functional assay
[7] = molecular target: T1, human CD73 on Calu6 cells; experiment: cell-based or functional assay; remark: listed apart in the source
[8] = molecular target: T1, human CD73 on Calu6 cells; experiment: cell-based or functional assay; remark: listed apart in the source
[9] = molecular target: T3, recombinant human CD73 extracellular …; experiment: SPR, Biacore T200, antibody captured on Protein A chip, hCD73 ECD as analyte, 1:1 Langmuir
Procedure: The affinity of CD73 antibody was determined by plasma surface resonance on Biacore T200. At room temperature, the antibody concentration was diluted to 0.5 μg/mL with 1×HBS-EP buffer (prepared from HBS-EP+Buffer 10×, GE, BR1008-26), the Protein A chip (GE, 29-1275-56) was coated with a flow rate of 10 μL per minute, the capture time was about 40 seconds, and the coated RU value was controlled to be about 100 RU. The recombinant human CD73 extracellular domain protein was diluted to 3 μg/mL with 1×HBS-EP buffer, diluted to two-fold gradient, a total of 6 concentrations, 200 μL of each concentration gradient. The 1×HBS-EP buffer was used as a control, the flow rate was 30 μl/min, the binding time was 120 seconds, and the dissociation time was 600 seconds. The affinity was fitted using Langmuir 1:1 Kinetic theoretical model and analyzed by Biacore T200 Evaluation Software (Table 3).

[10] = molecular target: T1, human CD73 on Calu6 cells; experiment: cell-based or functional assay; remark: listed apart in the source

B1: control antibody 11F11-huG1 (antibody, from another filing, human IgG1, V domains shown)
VH: QVQLVESGGGVVQPGRSLRLSCATSGFTFSNYGMHWVRQAPGKGLEWVAVILYDGSNKYYPDSVKGRFTISRDNSKNTLYLQMNSLRAEDTAVYYCARGGSSWYPDSFDIWGQGTMVTVSS
VL: DIQMTQSPSSLSASVGDRVTITCRASQGISSWLAWYQQKPEKAPKSLIYAASSLQSGVPSRFSGSGSGTDFTLTISSLQPEDFATYYCQQYNSYPLTFGGGTKVEIKR
Q: Which results are given for B1?
A: CD73 endocytosis ratio %, 0 minute [1]: 0%; CD73 endocytosis ratio %, 30 minutes [1]: 28%; CD73 endocytosis ratio %, 120 minutes [1]: 31%; CD73 endocytosis ratio %, 240 minutes [1]: 46%

B2: CD73 antibody 6G8 (chimeric) (antibody, V domains shown)
VH: QVTLKESGPGILKPSQTLSLTCSFSGFSLNTSGMGVGWIRQPSGKGLEWLAHIWWDDDKYYNPSLKSQLTISKDTSRNQVFLRIASVDTADTATYYCARRERWAWFAYWGQGTLVTVSA
VL: DIVMTQSQKFMSASVGDRVSVTCKASQNVFTNVAWYQQKPGQSPKVLIYSASYRYSGVPDRFTGSGSGTDFTLTINNVQSEDLAEYFCQQYNSYPTFGSGTKLEIK
notes: Mouse variable regions on human IgG heavy chain constant region and human kappa constant region (chimeric IgG); also called Clone 6G8; 6G8 Chimera
Q: How did the EC50 [2] turn out when B2 was run?
A: 1.91 nM

Q: And the EC50 [3]?
A: 1.03 nM

Q: What about the EC50 [4] of the same binder?
A: 0.02 nM

Q: And the EC50 [5]?
A: 0.02 nM

Q: And the “Inhibition of CD73 enzyme activity IC50(nM), Soluble CD73” value [6]?
A: 1.03 nM

Q: What about the “Inhibition of CD73 enzyme activity IC50(nM), Calu6” value [7] of the same binder?
A: 1.72 nM

Q: And the “CD73 endocytosis ratio %, 30 minutes” value [8]?
A: 17.1%

Q: And the “CD73 endocytosis ratio %, 60 minutes” value [8]?
A: 38.5%

Q: And the “CD73 endocytosis ratio %, 120 minutes” value [8]?
A: 22.2%

Q: What about the “CD73 endocytosis ratio %, 240 minutes” value [8] of the same binder?
A: 35.3%

Q: What about the “CD73 endocytosis ratio %, 480 minutes” value [8] of the same binder?
A: 47.7%

Q: What about the Kd [9] of the same binder?
A: 0.18 nM

Q: What about the koff [9] of the same binder?
A: 0.000111 s⁻¹

Q: What about the kon [9] of the same binder?
A: 617000 M⁻¹ s⁻¹

B3: humanized anti-CD73 antibody 6G8 VH-v8/VK-v4 (antibody, V domains shown)
VH: QVTLRESGPALVKPTQTLTLTCTFSGFSLSTSGMGVGWIRQPPGKALEWLAHIWWDEDKYYNPSLKSRLTISKDTSKNQVVLTMTNMDPVDTATYYCARRERWAWFAYWGQGTLVTVSS
VL: EIVMTQSPATLSVSPGERATLSCRASQNVFTNVAWYQQKPGQAPRVLIYSASYRYSGIPARFSGSGSGTEFTLTISSLQSEDFAVYFCQQYNSYPTFGQGTKLEIK
notes: Human IgG1 CH1-CH3 constant region and kappa constant region; also called hu6G8 VHv8 + hu6G8 VkV4
Q: With B3 as the binder, how does the “CD73 endocytosis ratio %, 0 minute” value [10] read?
A: 0%

Q: And the “CD73 endocytosis ratio %, 30 minutes” value [10]?
A: 28%

Q: What about the “CD73 endocytosis ratio %, 120 minutes” value [10] of the same binder?
A: 37%

Q: And the “CD73 endocytosis ratio %, 240 minutes” value [10]?
A: 46%

Q: And the Kd [9]?
A: 0.257 nM

Q: And the koff [9]?
A: 8.48e-05 s⁻¹

Q: What about the kon [9] of the same binder?
A: 330000 M⁻¹ s⁻¹

— patent US20220162331A1 (CHENGDU CONMED BIOSCIENCES, published 2022)
